Biological target: T1, Sin3A, endogenous in Neuro2A cells (UniProt Q60520 1-1274, limits assumed)
T1 sequence (looked up): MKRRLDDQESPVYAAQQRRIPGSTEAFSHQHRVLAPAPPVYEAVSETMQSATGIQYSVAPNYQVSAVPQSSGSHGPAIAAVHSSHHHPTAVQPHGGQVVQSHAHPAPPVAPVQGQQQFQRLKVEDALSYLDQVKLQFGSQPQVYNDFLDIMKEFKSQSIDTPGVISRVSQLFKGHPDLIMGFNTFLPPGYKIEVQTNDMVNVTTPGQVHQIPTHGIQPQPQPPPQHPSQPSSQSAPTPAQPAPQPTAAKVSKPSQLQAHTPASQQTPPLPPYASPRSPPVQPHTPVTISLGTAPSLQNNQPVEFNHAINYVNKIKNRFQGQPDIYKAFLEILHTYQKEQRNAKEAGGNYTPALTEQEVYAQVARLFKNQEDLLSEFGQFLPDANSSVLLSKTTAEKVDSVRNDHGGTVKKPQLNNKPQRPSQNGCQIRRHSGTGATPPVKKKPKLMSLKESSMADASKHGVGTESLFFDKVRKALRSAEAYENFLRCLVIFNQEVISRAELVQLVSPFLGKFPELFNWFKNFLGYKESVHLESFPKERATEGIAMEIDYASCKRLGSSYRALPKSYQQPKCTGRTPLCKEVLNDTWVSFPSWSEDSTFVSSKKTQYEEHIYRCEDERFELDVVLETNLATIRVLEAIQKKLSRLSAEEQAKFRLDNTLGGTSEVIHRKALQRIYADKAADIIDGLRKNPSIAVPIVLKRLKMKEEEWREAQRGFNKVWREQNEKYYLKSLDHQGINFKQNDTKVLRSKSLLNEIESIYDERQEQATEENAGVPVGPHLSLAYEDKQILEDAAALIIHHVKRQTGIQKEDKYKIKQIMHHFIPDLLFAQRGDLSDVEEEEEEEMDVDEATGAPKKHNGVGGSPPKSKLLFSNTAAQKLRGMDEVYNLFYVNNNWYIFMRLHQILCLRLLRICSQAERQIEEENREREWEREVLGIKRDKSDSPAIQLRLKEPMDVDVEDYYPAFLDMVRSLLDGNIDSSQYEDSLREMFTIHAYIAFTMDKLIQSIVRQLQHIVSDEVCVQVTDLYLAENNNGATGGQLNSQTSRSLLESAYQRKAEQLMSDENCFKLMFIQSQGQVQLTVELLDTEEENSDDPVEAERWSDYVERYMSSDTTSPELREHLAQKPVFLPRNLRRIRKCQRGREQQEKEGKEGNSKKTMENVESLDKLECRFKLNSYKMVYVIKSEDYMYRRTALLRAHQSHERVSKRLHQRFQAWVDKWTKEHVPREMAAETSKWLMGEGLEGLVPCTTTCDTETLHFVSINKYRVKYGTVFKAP
Test: co-immunoprecipitation (anti-Flag) from transfected N2A cells, western blot
Procedure: Brain tissues or cell pellets were lysed in 50 mM Tris-HCl (pH8.0), 150 mM NaCl, 1 mM EDTA, 1% NP-40, and complete protease inhibitor cocktail (Roche) with 20 strokes using the Dounce tight homogenizer. After centrifugation at 10000×g twice for 10 min, supernatants were subjected to co-immunoprecipitation or western blot analysis (Bio-rad). Two micrograms of anti-HDAC2 antibody (ab12169) or 15 μL of anti-Flag M2 affinity gels (Sigma) were used for immunoprecipitations. The antibodies used for immunoblotting were anti-HDAC2 (1 μg/mL, ab12169), anti-Sp3 (1 μg/mL, sc-644 X), anti-Sin3A (1 μg/mL, Abcam; ab3479), and […] (1:500, Sigma; F2043).
If the divergent C-terminus of HDAC2 alone is capable of binding to Sp3, the HDAC2-Sp3 interaction may potentially be inhibited through over-expression of this domain. To test this, the C-terminal domain of either HDAC2 (termed 2C) or HDAC1 (termed 1C) fused with mCherry, or mCherry alone, was transfected into neuronal N2A cells. Using co-IP experiments it was shown that 2C, but not 1C or mCherry alone, robustly bound to endogenous Sp3 (FIG. 6A). Importantly, binding of 2C to Sin3A, a well characterized partner of the HDAC1/2 complexes that controls cell cycle progression, was not detected.

binding result: no binding
B1: C-terminal domain of HDAC2 (termed 2C) fused with mCherry, flag-tagged (other, UniProt Q92769 390-488, looked up)
chain: VHEDSGDEDGEDPDKRISIRASDKRIACDEEFSDSEDEGEGGRRNVADHKKGAKKARIEEDKKETEDKKTDVKEEDKSKDNSGEKTDTKGTKSEQLSNP
notes: The part order follows the printed name 'mCherry-2C'; the Flag position is unknown; also called mCherry-2C; HDAC2 C-terminal fragment (2C); not shown: Flag tag; mCherry (engineered red fluorescent protein)

From patent US20190015473A1 (MIT, published 2019)
